Test results from patent US20250250357A1 (NANJING ZAIMING PHARMACEUTICAL, published 2025).
Where a chain is given by its changes, count along the chain named.

T1: human MSLN-R1-his protein (human, UniProt Q13421 296-390)
T1 construct: Region 1 of human mesothelin, made in HEK293E cells, His-tagged; also called human MSLN-R1 protein; hMSLN-R1-his; not shown: His tag
T1 chain: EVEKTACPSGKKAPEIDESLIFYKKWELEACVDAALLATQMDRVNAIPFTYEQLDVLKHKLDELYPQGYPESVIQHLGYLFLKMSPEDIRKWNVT

B1: S009-F8-13.8 (antibody, human IgG1, kappa, V domains shown)
VH: EFQLQQSGPELVKPGASVKISCKASGYSFTDYNMNWVKQTNGKSLEWIGIINPNYGTSSYNQKFKGKATLTVDQSSSTAYMQLNSLTSEDSAVYYCARVGRDNSGFDYWGQGTTLTVSS
VL: QIVLTQSPAIMSASPGEKVTMTCSASSSVSYMYWYQQKPGSSPRLLIYDTSNLASGVPVRFSGSGSGTSYSLTISRMEAEDAATYYCQQWSSYPPTFGSGTELEIKR
B2: S009-F8-22.23 (antibody, human IgG1, kappa, V domains shown)
VH: QVQLKQSGPGLVQPSQSLSITCTVSGFSLFSYGVHWVRQSPGKGLEWLGVIWSGGSTDYNAAFISRLSISKDNSKSQVFFKMNSLQADDTAMYYCARNGGSMITTLYYAMDYWGQGTSVTVSS
VL: DVVMTQTPLSLPVSLGDQASISCRSSQSLVHSYGNTYLHWYLQKPGQSPKLLIYKVSNRFSGVPDRFSGSGSGTDFTLKISRVEAEDLGVYFCSQSTHIPFTFGGGTKLEIKR
B3: S009-F8-24.14 (antibody, human IgG1, kappa, V domains shown)
VH: EFQLQQSGPELVKPGASVKISCKASGYSFTDYNMNWVKLSNGKSLEWIGVIIPNYGTSSYNQKFKGKATLTVDQSSSTAYMQLNSLTSEDSAVYYCARWDNYYGSSLDYWGQGTTLTVSS
VL: DIVMTQSQKFMSTTVGDRVSITCKASQNVGTAVAWYQQKPGQSPKLLIYSASNRYTGVPDRFTGSGSGTDFILTISNMQSEDLADYFCQQYSSYPLTFGAGTKLELKR
B4: S009-F8-18.9 (antibody, human IgG1, kappa, V domains shown)
VH: EFQLQQSGPELVKPGASVKISCKASGYSFTDYNMNWVKQSNGKSLEWIGIINPNYGTTSYNQKFKGRATLTVDQSSSTAYVQLNSLTSEDSAVYYCARGGYDNEAMDYWGQGTSVTVSS
VL: QIVLTQSPAIMSASPGEKVTMTCSASSSVSYMHWYQQKSGTSPKRWIYDTSKLASGVPARFSGSGSGTSYSLTISSMEAEDAATYYCQQWSSNPPTFGAGTKLELKR
B5: S009-F8-19.21 (antibody, human IgG1, kappa, V domains shown)
VH: B4 VH with A24T, I50V, S59G, R67K, V81M, N103G, Q111H
VL: B4 VL with S30N, N93Y, A99G, L105I
B6: S009-F8-15.19 (antibody, human IgG1, kappa, V domains shown)
VH: EFQLQQSGPELVKPGASVKISCKASGYSFTDYNMNWVKQSNGKSLEWIGIINPYYGTTSNNQNFKGKATLTVDQSSSTAYMQLNSLTSDDSAVYYCARWLRRDAMDYWGQGTSVTVSS
VL: DIVMTPSHKFMSTSVGDRVSIACKASQDVGSSVAWYQQKPGQSPKLLIYWTSTRHTGVPDRFTGSGSGTDFTLTISNVQSEDLADYFCQQYSSYPWTFGGGTKLEIKR

Biological target: T2, human MSLN-R2-his protein (human, UniProt Q13421 391-486)
T2 construct: Region 2 of human mesothelin, made in HEK293E cells, His-tagged; also called human MSLN-R2 protein; hMSLN-R2-his; not shown: His tag
Test: ELISA on coated MSLN-R2; antibody 100 nM

T2 sequence (Q13421 other isoform, or with tags, fused parts or gaps): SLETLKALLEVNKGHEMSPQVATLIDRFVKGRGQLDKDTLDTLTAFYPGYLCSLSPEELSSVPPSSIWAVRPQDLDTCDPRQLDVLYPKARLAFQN

OD450 [OD450] | Binder
0.06 | B1
0.17 | B2
0.05 | B3
0.08 | B4
0.06 | B5
0.05 | B6

Biological target: T3, human MSLN-R3-his protein (human, UniProt Q13421 487-598)
T3 construct: Region 3 of human mesothelin, made in HEK293E cells, His-tagged; also called human MSLN-R3 protein; hMSLN-R3-his; not shown: His tag
Test: ELISA on coated MSLN-R3; antibody 0.1 nM

T3 sequence (Q13421 495-606): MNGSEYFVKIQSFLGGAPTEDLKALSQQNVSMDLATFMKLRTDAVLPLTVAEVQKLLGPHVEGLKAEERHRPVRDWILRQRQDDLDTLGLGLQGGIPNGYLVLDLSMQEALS

OD450 [OD450] | Binder
0.04 | B1
0.04 | B2
0.04 | B3
0.04 | B4
0.04 | B5
0.04 | B6

Biological target: T1, human MSLN-R1-his protein
Test: ELISA on coated MSLN-R1; no antibody (blank)
Experimental: (§1) The plate was sealed with a plastic film and incubated at 4° C. overnight. The next day, the plate was washed twice with PBST, and a blocking buffer [PBS+2% (w/w) BSA] was added for blocking at room temperature for 2 h. The blocking buffer was discarded, and a chimeric antibody or negative control antibody serially diluted from 100 nM was added at 50 μL/well. After incubation at 37° C. for 2 h, the plate was washed 3 times with PBST. […] After incubation at 37° C. for 2 h, the plate was washed 5 times with PBST. A TMB substrate was added at 50 μL/well for incubation at room temperature for 5-10 min, and then a stop solution (1.0 N HCl) was added at 50 μL/well.

OD450 [OD450] | Binder
0.05 | B1
0.04 | B2
0.04 | B3
0.05 | B4
0.05 | B5
0.05 | B6

Biological target: T2, human MSLN-R2-his protein
Test: ELISA on coated MSLN-R2; no antibody (blank)
Experimental: as §1

OD450 [OD450] | Binder
0.05 | B1
0.04 | B2
0.04 | B3
0.05 | B4
0.05 | B5
0.05 | B6

Biological target: T3, human MSLN-R3-his protein
Test: ELISA on coated MSLN-R3; antibody 1 nM
Experimental: as §1

OD450 [OD450] | Binder
0.04 | B1
0.04 | B2
0.04 | B3
0.05 | B4
0.04 | B5
0.04 | B6

Biological target: T2, human MSLN-R2-his protein
Test: ELISA on coated MSLN-R2; antibody 1 nM
Experimental: as §1

OD450 [OD450] | Binder
0.04 | B1
0.08 | B2
0.04 | B3
0.05 | B4
0.05 | B5
0.04 | B6

Biological target: T3, human MSLN-R3-his protein
Test: ELISA on coated MSLN-R3; antibody 0.01 nM
Experimental: as §1

OD450 [OD450] | Binder
0.04 | B1
0.04 | B2
0.04 | B3
0.04 | B4
0.04 | B5
0.04 | B6

Biological target: T2, human MSLN-R2-his protein
Test: ELISA on coated MSLN-R2; antibody 0.0001 nM
Experimental: as §1

OD450 [OD450] | Binder
0.05 | B1
0.04 | B2
0.04 | B3
0.04 | B4
0.05 | B5
0.05 | B6

Biological target: T1, human MSLN-R1-his protein
Test: ELISA on coated MSLN-R1; antibody 10 nM

OD450 [OD450] | Binder
2.1 | B1
2.51 | B2
2.24 | B3
2.12 | B4
2.11 | B5
1.55 | B6

Biological target: T1, human MSLN-R1-his protein
Test: ELISA on coated MSLN-R1; antibody 1 nM

OD450 [OD450] | Binder
1.8 | B1
2.34 | B2
1.63 | B3
1.96 | B4
1.82 | B5
0.54 | B6

Biological target: T3, human MSLN-R3-his protein
Test: ELISA on coated MSLN-R3; antibody 10 nM
Experimental: as §1

OD450 [OD450] | Binder
0.05 | B1
0.05 | B2
0.05 | B3
0.06 | B4
0.05 | B5
0.05 | B6

Biological target: T2, human MSLN-R2-his protein
Test: ELISA on coated MSLN-R2; antibody 0.01 nM

OD450 [OD450] | Binder
0.04 | B1
0.04 | B2
0.04 | B3
0.04 | B4
0.04 | B5
0.04 | B6

Biological target: T3, human MSLN-R3-his protein
Test: ELISA on coated MSLN-R3; no antibody (blank)

OD450 [OD450] | Binder
0.05 | B1
0.04 | B2
0.04 | B3
0.05 | B4
0.05 | B5
0.05 | B6

Biological target: T2, human MSLN-R2-his protein
Test: ELISA on coated MSLN-R2; antibody 10 nM

OD450 [OD450] | Binder
0.05 | B1
0.11 | B2
0.04 | B3
0.06 | B4
0.06 | B5
0.05 | B6

Biological target: T1, human MSLN-R1-his protein
Test: ELISA on coated MSLN-R1; antibody 100 nM
Experimental: as §1

OD450 [OD450] | Binder
2.35 | B1
2.55 | B2
2.34 | B3
2.15 | B4
2.13 | B5
2.07 | B6

Biological target: T2, human MSLN-R2-his protein
Test: ELISA on coated MSLN-R2; antibody 0.1 nM

OD450 [OD450] | Binder
0.05 | B1
0.05 | B2
0.04 | B3
0.04 | B4
0.04 | B5
0.04 | B6

Biological target: T1, human MSLN-R1-his protein
Test: ELISA on coated MSLN-R1; antibody 0.001 nM

OD450 [OD450] | Binder
0.08 | B1
0.36 | B2
0.07 | B3
0.15 | B4
0.1 | B5
0.05 | B6

Biological target: T3, human MSLN-R3-his protein
Test: ELISA on coated MSLN-R3; antibody 0.001 nM
Experimental: as §1

OD450 [OD450] | Binder
0.05 | B1
0.04 | B2
0.04 | B3
0.05 | B4
0.04 | B5
0.04 | B6

Biological target: T2, human MSLN-R2-his protein
Test: ELISA on coated MSLN-R2; antibody 0.001 nM

OD450 [OD450] | Binder
0.05 | B1
0.05 | B2
0.04 | B3
0.04 | B4
0.04 | B5
0.04 | B6

Biological target: T3, human MSLN-R3-his protein
Test: ELISA on coated MSLN-R3; antibody 0.0001 nM
Experimental: as §1

OD450 [OD450] | Binder
0.04 | B1
0.04 | B2
0.04 | B3
0.04 | B4
0.04 | B5
0.04 | B6

Biological target: T1, human MSLN-R1-his protein
Test: ELISA on coated MSLN-R1; antibody 0.1 nM
Experimental: as §1

OD450 [OD450] | Binder
1.26 | B1
1.72 | B2
0.64 | B3
1.73 | B4
1.46 | B5
0.1 | B6

Biological target: T1, human MSLN-R1-his protein
Test: ELISA on coated MSLN-R1; antibody 0.0001 nM

OD450 [OD450] | Binder
0.05 | B1
0.26 | B2
0.05 | B3
0.06 | B4
0.06 | B5
0.04 | B6

Biological target: T3, human MSLN-R3-his protein
Test: ELISA on coated MSLN-R3; antibody 100 nM
Experimental: as §1

OD450 [OD450] | Binder
0.06 | B1
0.1 | B2
0.06 | B3
0.1 | B4
0.09 | B5
0.08 | B6

Biological target: T1, human MSLN-R1-his protein
Test: ELISA on coated MSLN-R1; antibody 0.01 nM
Experimental: as §1

OD450 [OD450] | Binder
0.28 | B1
0.78 | B2
0.13 | B3
0.62 | B4
0.39 | B5
0.05 | B6
